The record followed here is patent US20110014213A1 (JURIDICAL FDN THE CHEMO SERO THERAP RES INS, published 2011).

One assay has as its target T1, human α9 integrin (human, UniProt Q13797 30-1035).
T1 sequence: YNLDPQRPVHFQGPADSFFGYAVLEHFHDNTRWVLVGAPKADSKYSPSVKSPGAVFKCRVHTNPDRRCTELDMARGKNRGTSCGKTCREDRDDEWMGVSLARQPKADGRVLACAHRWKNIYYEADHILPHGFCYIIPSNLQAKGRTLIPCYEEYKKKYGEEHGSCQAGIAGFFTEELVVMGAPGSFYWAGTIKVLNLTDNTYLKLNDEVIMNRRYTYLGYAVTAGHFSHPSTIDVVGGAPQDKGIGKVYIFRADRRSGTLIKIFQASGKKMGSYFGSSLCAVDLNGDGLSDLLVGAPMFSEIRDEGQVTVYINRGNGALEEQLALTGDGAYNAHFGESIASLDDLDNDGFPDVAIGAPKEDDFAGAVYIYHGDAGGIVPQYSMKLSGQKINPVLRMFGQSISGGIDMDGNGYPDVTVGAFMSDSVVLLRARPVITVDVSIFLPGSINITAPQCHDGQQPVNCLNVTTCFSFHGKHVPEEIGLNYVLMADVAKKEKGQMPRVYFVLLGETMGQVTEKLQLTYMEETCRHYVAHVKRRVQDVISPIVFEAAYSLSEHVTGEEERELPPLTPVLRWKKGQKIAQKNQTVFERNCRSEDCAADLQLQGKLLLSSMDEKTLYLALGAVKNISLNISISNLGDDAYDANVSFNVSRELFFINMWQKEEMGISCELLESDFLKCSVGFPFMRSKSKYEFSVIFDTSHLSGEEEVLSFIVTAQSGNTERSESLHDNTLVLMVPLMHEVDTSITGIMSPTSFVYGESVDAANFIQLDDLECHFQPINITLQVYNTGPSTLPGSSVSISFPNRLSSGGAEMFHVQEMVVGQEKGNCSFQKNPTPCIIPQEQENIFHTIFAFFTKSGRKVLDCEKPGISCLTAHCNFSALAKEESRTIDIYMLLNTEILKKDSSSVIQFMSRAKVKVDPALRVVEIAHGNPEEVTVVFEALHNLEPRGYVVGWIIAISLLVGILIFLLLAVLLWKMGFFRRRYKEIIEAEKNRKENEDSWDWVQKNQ
The assay can be described thus: cell-based or functional assay.

In a further assay the target is T2, mouse α9 integrin (mouse, UniProt B8JK39 29-1036).
T2 chain: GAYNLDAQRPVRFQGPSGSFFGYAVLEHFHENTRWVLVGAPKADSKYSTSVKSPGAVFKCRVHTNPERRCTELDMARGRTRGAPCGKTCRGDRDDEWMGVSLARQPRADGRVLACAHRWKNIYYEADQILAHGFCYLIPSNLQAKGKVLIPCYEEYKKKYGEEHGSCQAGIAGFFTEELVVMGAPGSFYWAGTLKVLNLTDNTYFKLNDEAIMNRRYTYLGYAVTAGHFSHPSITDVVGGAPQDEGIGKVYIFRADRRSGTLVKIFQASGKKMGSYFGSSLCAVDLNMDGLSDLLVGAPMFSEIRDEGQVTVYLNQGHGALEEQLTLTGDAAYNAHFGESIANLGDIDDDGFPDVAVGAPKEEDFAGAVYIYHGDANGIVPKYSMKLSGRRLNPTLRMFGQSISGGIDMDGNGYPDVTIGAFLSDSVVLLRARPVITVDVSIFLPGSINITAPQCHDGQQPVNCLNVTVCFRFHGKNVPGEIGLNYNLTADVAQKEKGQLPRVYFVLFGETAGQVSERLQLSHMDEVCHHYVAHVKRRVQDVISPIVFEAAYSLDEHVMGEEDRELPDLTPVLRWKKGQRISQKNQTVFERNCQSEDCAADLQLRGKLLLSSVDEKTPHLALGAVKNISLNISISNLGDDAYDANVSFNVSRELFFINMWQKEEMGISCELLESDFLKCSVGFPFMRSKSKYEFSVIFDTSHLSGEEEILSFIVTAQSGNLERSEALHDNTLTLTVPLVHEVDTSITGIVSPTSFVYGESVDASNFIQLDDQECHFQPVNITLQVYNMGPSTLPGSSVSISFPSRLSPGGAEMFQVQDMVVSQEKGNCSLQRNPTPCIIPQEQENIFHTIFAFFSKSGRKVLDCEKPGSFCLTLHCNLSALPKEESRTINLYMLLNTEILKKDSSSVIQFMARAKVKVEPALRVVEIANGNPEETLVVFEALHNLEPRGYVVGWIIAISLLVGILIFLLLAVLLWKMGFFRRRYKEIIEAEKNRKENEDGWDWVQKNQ
The assay is described as follows: cell-based or functional assay.

B1: MA9-413 scFv-Fc (Fc fusion)
scFv: EVQLVESGGGVVRPGGSLRLSCAASGFAFGDYGMSWVRQAPGKGLEWVSGINWNGGSTGYADSVKGRFTTSRDNAKNSLYLQMNSLRAEDTALYYCARDENYDILTGYYYYGMDVWGQGTTVTVSSGGGGSGGGGSGGGGSQSVVTQPPSVSAAPGQKVTISCSGSSSNIGNNYVSWYQQLPGTAPKLLIYDNNKRPSGIPDRFSASKSGTSATLGITGLQTGDEADYYCGTWDSSLTVWAFGGGTKLTVLG
notes: Divalent scFv-Fc with mouse IgG1 Fc, expressed in CHO-DG44; also called ANM-2; not shown: Fc region of mouse IgG1 and its junction to the scFv
On to B1, for which the figures for the “IC50 of inhibition of α9-dependent cell adhesion” value with human α9 integrin and in the assay with mouse α9 integrin were 48.5 µg/mL and 0.34 µg/mL, respectively.
